Test [1] concerns the target CaM-free full-length murine inducible nitric-oxide synthase, expressed and purified in the absence of CaM (murine) (UniProt P29477).
Test [2] shares this target. The test can be described thus: ITC; single injection mode; 20 μM iNOSfl (-CaM) (dissolved in 200 μl) against 8 μM CaM (dissolved in 2 ml); 40 mM EPPS, 10% glycerol, 150 mM NaCl, 2 mM Ca2+; single-site binding model.

Sequence of UniProt P29477 (P29477 whole entry): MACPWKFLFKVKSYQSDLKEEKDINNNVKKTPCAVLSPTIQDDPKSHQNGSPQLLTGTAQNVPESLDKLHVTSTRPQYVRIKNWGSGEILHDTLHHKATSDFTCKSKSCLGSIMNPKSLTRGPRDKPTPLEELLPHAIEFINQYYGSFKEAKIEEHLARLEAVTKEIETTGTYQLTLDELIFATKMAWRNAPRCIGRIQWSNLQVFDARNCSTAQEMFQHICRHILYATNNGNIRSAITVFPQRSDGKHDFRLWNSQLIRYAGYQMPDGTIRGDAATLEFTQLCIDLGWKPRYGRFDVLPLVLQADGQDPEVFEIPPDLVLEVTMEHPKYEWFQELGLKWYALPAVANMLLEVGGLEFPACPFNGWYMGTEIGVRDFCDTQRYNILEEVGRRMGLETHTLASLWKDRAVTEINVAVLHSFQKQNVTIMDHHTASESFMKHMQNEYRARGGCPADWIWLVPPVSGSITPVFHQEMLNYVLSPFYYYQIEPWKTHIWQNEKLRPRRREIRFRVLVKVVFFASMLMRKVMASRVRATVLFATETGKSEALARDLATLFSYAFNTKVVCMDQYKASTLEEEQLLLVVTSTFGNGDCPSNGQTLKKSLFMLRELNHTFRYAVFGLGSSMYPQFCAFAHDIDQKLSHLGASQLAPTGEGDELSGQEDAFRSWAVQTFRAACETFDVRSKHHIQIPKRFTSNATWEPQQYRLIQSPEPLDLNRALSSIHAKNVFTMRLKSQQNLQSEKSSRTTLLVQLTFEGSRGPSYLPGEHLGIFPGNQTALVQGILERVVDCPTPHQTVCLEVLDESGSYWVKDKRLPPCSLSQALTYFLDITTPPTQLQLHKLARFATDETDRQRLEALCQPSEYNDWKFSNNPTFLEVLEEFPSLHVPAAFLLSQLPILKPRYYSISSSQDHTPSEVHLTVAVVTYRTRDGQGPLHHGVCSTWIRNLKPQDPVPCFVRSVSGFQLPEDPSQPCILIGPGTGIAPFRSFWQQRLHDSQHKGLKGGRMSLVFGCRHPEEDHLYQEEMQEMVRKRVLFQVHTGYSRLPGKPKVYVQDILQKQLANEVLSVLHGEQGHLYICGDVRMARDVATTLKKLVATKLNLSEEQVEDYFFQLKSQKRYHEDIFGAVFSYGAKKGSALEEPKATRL

As for “calmodulin (added in vitro) (from UniProt P0DP23 1-149) (natural protein)”, in test [1], the steady-state NO synthesis activity (oxyhemoglobin assay, 1 μM CaM in the assay buffer, 25°C) (min^-1 per μg of protein) is 10.8. In addition, the dH in test [2] was determined as 489000 cal/mol.

Values taken from paper PMC4379030.
